Results reported in paper PMC4112642, “Tomato PYR/PYL/RCAR abscisic acid receptors show high expression in root, differential sensitivity to the abscisic acid agonist quinabactin, and the capability to enhance plant drought resistance” (Journal of Experimental Botany, 2014).
Blank lines part the entries; values can stand above or below the molecule they belong to.

Experiments:
[1] = target: 6g061180 tomato ABA receptor, recombinant, purified for size exclusion chromatography (tomato (Solanum lycopersicum)); assay: SEC; Superdex200 10/30 in 25mM TRIS-HCl pH 8.0, 200mM NaCl, 5mM beta-mercaptoethanol, in the absence of ABA; about 1mg loaded of 8g076960, 6g061180 or 6g050500 (concentrated to 10mg ml^-1), 0.1mg of 12g055990 (0.7mg ml^-1)
[2] = target: 8g076960 tomato ABA receptor, recombinant, purified for size exclusion chromatography (tomato (Solanum lycopersicum)); assay: as above
[3] = target: T1, 6g061180 (Sl06g061180) with ΔN 12g096020 (Solanum lycopersicum, UniProt A0A3Q7HQZ7); assay: receptor-mediated PP2C inhibition, RRA(phosphoT)VA phosphopeptide, molybdate dye; format: biochemical; conditions: agonist; 0.5 μM PP2C, 2 μM receptor, 0.1-10 μM ligand; 10 mM MgCl2, pH 7.5, 30 °C
T1 construct: gene LOC101267127; PP2C N-terminally deleted catalytic core 178-509; with Protein phosphatase 2C HAB1-like (clade A)
T1 sequence (A0A3Q7HQZ7 entry or part of it, stated change not applied): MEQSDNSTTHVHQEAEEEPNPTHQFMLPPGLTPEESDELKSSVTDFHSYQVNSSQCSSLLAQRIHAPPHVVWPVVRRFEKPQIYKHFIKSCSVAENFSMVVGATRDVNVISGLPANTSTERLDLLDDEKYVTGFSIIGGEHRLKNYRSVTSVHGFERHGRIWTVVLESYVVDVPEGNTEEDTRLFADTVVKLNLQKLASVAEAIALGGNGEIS

[4] = target: T2, 8g076960 (Sl08g076960) with ΔN 12g096020 (Solanum lycopersicum, UniProt A0A3Q7HTY9); assay: as above; format: biochemical; conditions: agonist; 0.5 μM PP2C, 2 μM receptor, 0.1-10 μM ligand; 10 mM MgCl2, pH 7.5, 30 °C
T2 construct: gene LOC101268417; PP2C N-terminally deleted catalytic core 178-509; with Protein phosphatase 2C HAB1-like (clade A)
T2 sequence (A0A3Q7HTY9 entry or part of it, stated change not applied): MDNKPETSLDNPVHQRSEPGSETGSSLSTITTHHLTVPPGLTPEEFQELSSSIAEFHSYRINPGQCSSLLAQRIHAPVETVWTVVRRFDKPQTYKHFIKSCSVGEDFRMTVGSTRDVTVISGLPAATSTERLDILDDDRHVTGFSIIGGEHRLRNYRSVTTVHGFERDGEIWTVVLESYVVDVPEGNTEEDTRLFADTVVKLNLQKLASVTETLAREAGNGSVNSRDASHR

[5] = target: the molecule itself; assay: SEC; Superdex200 10/30 in 25mM TRIS-HCl pH 8.0, 200mM NaCl, 5mM beta-mercaptoethanol, in the absence of ABA; about 1mg loaded of 8g076960, 6g061180 or 6g050500 (concentrated to 10mg ml^-1), 0.1mg of 12g055990 (0.7mg ml^-1)

- stoichiometry N [1]: 2
Molecule: 6g061180 tomato ABA receptor, recombinant, purified for size exclusion chromatography

- stoichiometry N [2]: 2
Molecule: 8g076960 tomato ABA receptor, recombinant, purified for size exclusion chromatography

Molecule: CCCN1C(=O)CCc2cc(NS(=O)(=O)Cc3ccc(C)cc3)ccc21 [quinabactin]
- % PP2C activity [3]: efficiently through the dimeric tomato receptors 8g076960 and 6g061180
- % PP2C activity [4]: QB inhibited (compared with ABA) ΔN12g096020 phosphatase activity efficiently through the dimeric tomato receptors 8g076960

B1: 6g050500 tomato ABA receptor, recombinant, purified for size exclusion chromatography (receptor)
chain: MPSSLQLHRINPTTATLAVKQPQLSQATTWFSPVSTSVPDNVLHHHTHVVGPNQCCSAVLQSISAPIDTVWSLVRRFDNPQAYKHFLKSCHVIVGDGDVGTLREVRVVSGLPAGSSTERLEILDDEKHVLSFSVVGGDHRLNNYRSVTTLHRAAEEGSTVVVESYVVDVPQGNTKEETCVFVDTIVRCNLQSLAQIAQNLAKTSKNHDEDPQLKIHRLVDFV
- stoichiometry N [5]: 2
